In patent US20230220042A1 (SHANGHAI JIAO TONG UNIVERSITY SCHOOL OF MEDICINE, published 2023):
Changes are numbered by the printed parent chain. Names may count otherwise.

B1: human IgG2 anti-mouse CD40 surface displayed antibody, G327A/I332A (antibody, name in EU numbering)
light chain (with the P2A rest): DTVLTQSPALAVSPGERVTISCRASDSVSTLMHWYQQKPGQQPKLLIYLASHLESGVPARFSGSGSGTDFTLTIDPVEADDTATYYCQQSWNDPWTFGGGTKLELKRTVAAPSVFIFPPSDEQLKSGTASVVCLLNNFYPREAKVQWKVDNALQSGNSQESVTEQDSKDSTYSLSSTLTLSKADYEKHKVYACEVTHQGLSSPVTKSFNRGECGSGATNFSLLKQAGDVEENPG
heavy chain: EVQLVESDGGLVQPGRSLKLPCAASGFTFSDYYMAWVRQAPTKGLEWVASISYDGSSTYYRDSVKGRFTISRDNAKSTLYLQMDSLRSEDTATYYCGRHSSYFDYWGQGVMVTVSSASTKGPSVFPLAPCSRSTSESTAALGCLVKDYFPEPVTVSWNSGALTSGVHTFPAVLQSSGLYSLSSVVTVPSSNFGTQTYTCNVDHKPSNTKVDKTVERKCCVECPPCPAPPVAGPSVFLFPPKPKDTLMISRTPEVTCVVVDVSHEDPEVQFNWYVDGVEVHNAKTKPREEQFNSTFRVVSVLTVVHQDWLNGKEYKCKVSNKALPAPAEKTISKTKGQPREPQVYTLPPSREEMTKNQVSLTCLVKGFYPSDIAVEWESNGQPENNYKTTPPMLDSDGSFFLYSKLTVDKSRWQQGNVFSCSVMHEALHNHYTQKSLSLSPGKLEPPPSTVSNMATVAVLVVLGAAIVTGAVVAFVMKMRRRNTGGKGGDYALAPGSQTSDLSLPDCKVMVHDPHSLA
notes: m1 with these Fc mutations (Eu numbering); copies: 2 + 2
B2: human IgG2 anti-mouse CD40 surface displayed antibody, Fc mutant P271G/T299W (antibody, name in EU numbering)
light chain (with the P2A rest): B1 light chain (with the P2A rest)
heavy chain: B1 heavy chain with P266G, T294W, A322G, A327I
notes: as m1; positions are Eu numbers; copies: 2 + 2
B3: human IgG2 anti-mouse CD40 surface displayed antibody, Fc mutant P271G/T299A (antibody, name in EU numbering)
light chain (with the P2A rest): B1 light chain (with the P2A rest)
heavy chain: B1 heavy chain with P266G, T294A, A322G, A327I
notes: as for B2
B4: human IgG2 anti-mouse CD40 surface displayed antibody, Fc mutant L328G (antibody, name in EU numbering)
light chain (with the P2A rest): B1 light chain (with the P2A rest)
heavy chain: B1 heavy chain with A322G, L323G, A327I
notes: as for B2
B5: human IgG2 anti-mouse CD40 surface displayed antibody, Fc mutant P271G/P329S (antibody, name in EU numbering)
light chain (with the P2A rest): B1 light chain (with the P2A rest)
heavy chain: B1 heavy chain with P266G, A322G, P324S, A327I
notes: as for B2
B6: human IgG2 anti-mouse CD40 surface displayed antibody, Fc mutant S267A/P271G (antibody, name in EU numbering)
light chain (with the P2A rest): B1 light chain (with the P2A rest)
heavy chain: B1 heavy chain with S262A, P266G, A322G, A327I
notes: as for B2
B7: human IgG2 anti-mouse CD40 surface displayed antibody, L328F (antibody, name in EU numbering)
light chain (with the P2A rest): B1 light chain (with the P2A rest)
heavy chain: B1 heavy chain with A322G, L323F, A327I
notes: m1 with this Fc mutation (Eu numbering); copies: 2 + 2
B8: human IgG2 anti-mouse CD40 surface displayed antibody, Fc mutant P271G/S298L (antibody, name in EU numbering)
light chain (with the P2A rest): B1 light chain (with the P2A rest)
heavy chain: B1 heavy chain with P266G, S293L, A322G, A327I
notes: as for B2
B9: human IgG2 anti-mouse CD40 surface displayed antibody, L328W (antibody, name in EU numbering)
light chain (with the P2A rest): B1 light chain (with the P2A rest)
heavy chain: B1 heavy chain with A322G, L323W, A327I
notes: m1 with this Fc mutation (Eu numbering); Not the anti-human OX40 antibody Mut_1, which carries the same Fc mutation; copies: 2 + 2
B10: human IgG2 anti-mouse CD40 surface displayed antibody, Fc mutant P271G/P331T (antibody, name in EU numbering)
light chain (with the P2A rest): B1 light chain (with the P2A rest)
heavy chain: B1 heavy chain with P266G, A322G, P326T, A327I
notes: as for B2
B11: human IgG2 anti-mouse CD40 surface displayed antibody, Fc mutant P271G/T299S (antibody, name in EU numbering)
light chain (with the P2A rest): B1 light chain (with the P2A rest)
heavy chain: B1 heavy chain with P266G, T294S, A322G, A327I
notes: as for B2
B12: human IgG2 anti-mouse CD40 surface displayed antibody, Fc mutant P271G/S298E (antibody, name in EU numbering)
light chain (with the P2A rest): B1 light chain (with the P2A rest)
heavy chain: B1 heavy chain with P266G, S293E, A322G, A327I
notes: as for B2
B13: human IgG2 anti-mouse CD40 surface displayed antibody, G327A/I332E (antibody, name in EU numbering)
light chain (with the P2A rest): B1 light chain (with the P2A rest)
heavy chain: B1 heavy chain with A327E
notes: as for B1
B14: human IgG2 anti-mouse CD40 surface displayed antibody, Fc mutant P271G/S298K (antibody, name in EU numbering)
light chain (with the P2A rest): B1 light chain (with the P2A rest)
heavy chain: B1 heavy chain with P266G, S293K, A322G, A327I
notes: as for B2
B15: human IgG2 anti-mouse CD40 surface displayed antibody, L328Y (antibody, name in EU numbering)
light chain (with the P2A rest): B1 light chain (with the P2A rest)
heavy chain: B1 heavy chain with A322G, L323Y, A327I
notes: as for B7
B16: human IgG2 anti-mouse CD40 surface displayed antibody, Fc mutant P271G/T299M (antibody, name in EU numbering)
light chain (with the P2A rest): B1 light chain (with the P2A rest)
heavy chain: B1 heavy chain with P266G, T294M, A322G, A327I
notes: as for B2
B17: human IgG2 anti-mouse CD40 surface displayed antibody, L328E/I332T (antibody, name in EU numbering)
light chain (with the P2A rest): B1 light chain (with the P2A rest)
heavy chain: B1 heavy chain with A322G, L323E, A327T
notes: as for B1
B18: human IgG2 anti-mouse CD40 surface displayed antibody, Fc mutant P271G/S298D (antibody, name in EU numbering)
light chain (with the P2A rest): B1 light chain (with the P2A rest)
heavy chain: B1 heavy chain with P266G, S293D, A322G, A327I
notes: as for B2
B19: human IgG2 anti-mouse CD40 surface displayed antibody, Fc mutant P271G/S298G (antibody, name in EU numbering)
light chain (with the P2A rest): B1 light chain (with the P2A rest)
heavy chain: B1 heavy chain with P266G, S293G, A322G, A327I
notes: as for B2
B20: human IgG2 anti-mouse CD40 surface displayed antibody, Fc mutant V266A/P271G (antibody, name in EU numbering)
light chain (with the P2A rest): B1 light chain (with the P2A rest)
heavy chain: B1 heavy chain with V261A, P266G, A322G, A327I
notes: as for B2
B21: human IgG2 anti-mouse CD40 surface displayed antibody, Fc mutant P271G/P331C (antibody, name in EU numbering)
light chain (with the P2A rest): B1 light chain (with the P2A rest)
heavy chain: B1 heavy chain with P266G, A322G, P326C, A327I
notes: as for B2
B22: human IgG2 anti-mouse CD40 surface displayed antibody, Fc mutant L328R (antibody, name in EU numbering)
light chain (with the P2A rest): B1 light chain (with the P2A rest)
heavy chain: B1 heavy chain with A322G, L323R, A327I
notes: as for B2
B23: human IgG2 anti-mouse CD40 surface displayed antibody, Fc mutant S267M/P271G (antibody, name in EU numbering)
light chain (with the P2A rest): B1 light chain (with the P2A rest)
heavy chain: B1 heavy chain with S262M, P266G, A322G, A327I
notes: as for B2
B24: human IgG2 anti-mouse CD40 surface displayed antibody, Fc mutant H268S (antibody, name in EU numbering)
light chain (with the P2A rest): B1 light chain (with the P2A rest)
heavy chain: B1 heavy chain with H263S, A322G, A327I
notes: as for B2
B25: human IgG2 anti-mouse CD40 surface displayed antibody, G327A/I332C (antibody, name in EU numbering)
light chain (with the P2A rest): B1 light chain (with the P2A rest)
heavy chain: B1 heavy chain with A327C
notes: as for B1

Legend:
[1] = target: T1, Biotin-FcγRIIB (human FcγRIIB, Sino Biological) (human, UniProt P31994 43-217, limits assumed, biotin-labeled); experiment: NGS after FACS sort of 3T3-displayed Library4 for biotin-FcγRIIB binding
T1 construct: Used at 1 µg/ml with Streptavidin-APC for flow cytometry and sorting; also called CD32b
T1 sequence (looked up): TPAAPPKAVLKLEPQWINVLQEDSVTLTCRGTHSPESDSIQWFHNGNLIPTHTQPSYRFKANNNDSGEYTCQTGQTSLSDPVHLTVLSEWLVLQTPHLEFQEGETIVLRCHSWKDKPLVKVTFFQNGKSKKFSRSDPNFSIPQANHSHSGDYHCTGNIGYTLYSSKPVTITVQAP

Biotin-FcγRIIB [2] = target: T2, Biotin-FcγRIIB (human, UniProt P31994 43-217, limits assumed, biotin-labelled); experiment: FACS sorting of displayed Fc library on biotin-FcγRIIB, NGS
T2 construct: Bought, biotin-labelled; used at 1 µg/ml for staining and sorting; also called human FcγRIIB; CD32b
T2 sequence (looked up): T1 sequence (looked up)

Biotin-FcγRIIB [3] = target: T2, Biotin-FcγRIIB; experiment: FACS sorting of displayed Fc library on biotin-FcγRIIB, NGS; reference P271G
Biotin-FcγRIIB [4] = target: T2, Biotin-FcγRIIB; experiment: magnetic sorting on biotin-FcγRIIB with unlabelled activating FcγRs, NGS; LibraryMix #3
Description: 3T3 cells were collected by trypsin digestion, and a single cell suspension was prepared. […] The cells were incubated for 15 minutes on ice and then washed twice with MACS buffer and re-suspended in 100 μl MACS buffer. Twenty-five μl anti-Biotin magnetic beads were added, and the cells were incubated for 15 minutes on ice and then washed once with MACS buffer and re-suspended to 500 μl, and added to the LS column put in the magnetic field. The effluent was collected, washed with 3 mL of MACS buffer and collected; The LS column was then removed out of the magnetic field, and 5 mL of MACS buffer was used to rapidly elute the remaining cells from the sorting column to collect positive cells, which are the high I/A ratio cells.

Row | Enrichment factor (after/before sorting) (Biotin-FcγRIIB [2]) | Increased factor a (enrichment factor/wild-type enrichment factor) (Biotin-FcγRIIB [2]) | Increased factor 2 c Site 1 (combined/point mutation) (Biotin-FcγRIIB [3]) | also measured | Binder
1 |  |  |  | Enrichment factor (percentage after sorting/percentage before sorting) [1]: 29.2; Increased factor (enrichment factor/wild-type enrichment factor) [1]: 19.5 | B1
2 | 9.23 | 12.3 | 2.6 |  | B2
3 | 6.28 | 8.39 | 1.8 |  | B3
4 |  |  |  | Enrichment factor (percentage after sorting/percentage before sorting) (Biotin-FcγRIIB [4]): 3.01; Increased factor (mutation enrichment factor/wild-type enrichment factor) (Biotin-FcγRIIB [4]): 2.67 | B4
5 | 46.2 | 61.8 | 13.1 |  | B5
6 | 5.27 | 9.19 |  | Increased factor 2 c Site 2 (combined/point mutation) (Biotin-FcγRIIB [3]): 1.9 | B6
7 |  |  |  | Enrichment factor (percentage after sorting/percentage before sorting) [1]: 563; Increased factor (enrichment factor/wild-type enrichment factor) [1]: 377 | B7
8 | 188 | 252 | 53.2 |  | B8
9 |  |  |  | Enrichment factor (percentage after sorting/percentage before sorting) [1]: 33.2; Increased factor (enrichment factor/wild-type enrichment factor) [1]: 22.2 | B9
10 | 32.3 | 43.2 | 9.1 |  | B10
11 | 12 | 16 | 3.4 |  | B11
12 | 298 | 398 | 84.2 |  | B12
13 |  |  |  | Enrichment factor (percentage after sorting/percentage before sorting) [1]: 126; Increased factor (enrichment factor/wild-type enrichment factor) [1]: 84.1 | B13
14 | 10.2 | 13.6 | 2.9 |  | B14
15 |  |  |  | Enrichment factor (percentage after sorting/percentage before sorting) [1]: 3.38; Increased factor (enrichment factor/wild-type enrichment factor) [1]: 2.26 | B15
16 | 4.74 | 6.33 | 1.3 |  | B16
17 |  |  |  | Enrichment factor (percentage after sorting/percentage before sorting) [1]: 55.1; Increased factor (enrichment factor/wild-type enrichment factor) [1]: 36.9 | B17
18 | 6.78 | 9.06 | 1.9 |  | B18
19 | 9.73 | 13 | 2.8 |  | B19
20 | 8.63 | 15 |  | Increased factor 2 c Site 2 (combined/point mutation) (Biotin-FcγRIIB [3]): 3.2 | B20
21 | 140 | 187 | 39.6 |  | B21
22 |  |  |  | Enrichment factor (percentage after sorting/percentage before sorting) (Biotin-FcγRIIB [4]): 5.3; Increased factor (mutation enrichment factor/wild-type enrichment factor) (Biotin-FcγRIIB [4]): 4.69; Percentage after sorting/unbinding percentage (Biotin-FcγRIIB [4]): 30.8; Percentage before sorting/unbinding percentage (Biotin-FcγRIIB [4]): 5.82 | B22
23 | 4.31 | 7.52 |  | Increased factor 2 c Site 2 (combined/point mutation) (Biotin-FcγRIIB [3]): 1.6 | B23
24 |  |  |  | Enrichment factor (percentage after sorting/percentage before sorting) (Biotin-FcγRIIB [4]): 7.85; Increased factor (mutation enrichment factor/wild-type enrichment factor) (Biotin-FcγRIIB [4]): 6.95 | B24
25 |  |  |  | Enrichment factor (percentage after sorting/percentage before sorting) [1]: 11.4; Increased factor (enrichment factor/wild-type enrichment factor) [1]: 7.64 | B25
